Assay results as given in publication PMC8392543.
Substitutions are numbered along the chain they refer to. Names and notes keep the numbering of the source.

B1: EsOgl (Exiguobacterium artemiae 255-15; A109P/E176P/K441P/S130P) (protein)
chain: MERKWWHDSVVYQIYPRSFNDSNGDGIGDLVGIIEKLDYLKELGIDVIWLSPVYDSPNDDNGYDIRDYEAIMSEFGTMADFDRLLDQAHERGIKIVMDLVINHSSDEHPWFAESRKSKDNPYRDYYIWRPANEDGTLPNNWGSIFSGPAWELDEATNEYYLHLFSKKQPDLNWENPKLRQEVYQMITRWLDRGIDGFRMDVINLISKTPGLPDATVPPGALYGDGGQHYINGPRIHEFLKEMNDASFGNYDVLTVGEMPGATTDDAILYTDPERKEVNMVFTFEHMDLDSGPGGKWDVKPFDLQKLKENFTKWQVALHEKGWNSLYWNNHDQPRVVSRFGNDTTYRVESAKMLATLLHLLKGTPYIYQGEEIGMTNVAFESIEDYEDIEIRNMWKERTEQGASPAELLRAVHVKGRDNARTPIQWDATEHAGFTTGTPWLPVNPNYPTINVEQALEDPDSIFYYYKQLIALRHQHDVIVYGEYALILEEETDIYAYTRTYENETWYIYCSFSQEEVTVPLSHDTSDPVIGNYSESPAGSKEELVLRPYEAIVYRTTR
B2: EsOgl (Exiguobacterium artemiae 255-15) (protein)
chain: B1 chain with P109A, P130S, P176E, P441K
B3: EsOgl (Exiguobacterium artemiae 255-15; A109P) (protein)
chain: B1 chain with P130S, P176E, P441K
B4: EsOgl (Exiguobacterium artemiae 255-15; S130P) (protein)
chain: B1 chain with P109A, P176E, P441K
B5: EsOgl (Exiguobacterium artemiae 255-15; E176P) (protein)
chain: B1 chain with P109A, P130S, P441K
B6: EsOgl (Exiguobacterium artemiae 255-15; K441P) (protein)
chain: B1 chain with P109A, P130S, P176E
B7: EsOgl (Exiguobacterium artemiae 255-15; A109P/S130P) (protein)
chain: B1 chain with P176E, P441K
B8: EsOgl (Exiguobacterium artemiae 255-15; A109P/E176P/S130P) (protein)
chain: B1 chain with P441K

substrate: O=[N+]([O-])c1ccc(O[C@H]2O[C@H](CO)[C@@H](O)[C@H](O)[C@H]2O)cc1; assay: purified protein; settings: 33 mM potassium phosphate pH 7.0, 25 °C

B1 and B2 are within 1.5-fold of each other in Km: 850 ± 20 µM for the first, 1060 ± 20 µM for the second.

B3 and B4 are within 1.5-fold of each other in Km: 1430 ± 90 µM for the first, 1660 ± 60 µM for the second.

Compared with B5, B6 is 2.1-fold lower in Km: 1970 ± 80 µM for the first, 930 ± 80 µM for the second.

B7 and B8 are within 1.5-fold of each other in Km: 1370 ± 40 µM for the first, 920 ± 70 µM for the second.

B1 and B2 are within 1.5-fold of each other in kcat/Km: 167000 M⁻¹ s⁻¹ for the first, 233000 M⁻¹ s⁻¹ for the second.

B3 and B4 are within 1.5-fold of each other in kcat/Km: 167000 M⁻¹ s⁻¹ for the first, 250000 M⁻¹ s⁻¹ for the second.

B5 and B6 are within 1.5-fold of each other in kcat/Km: 167000 M⁻¹ s⁻¹ for the first, 183000 M⁻¹ s⁻¹ for the second.

B7 and B8 are within 1.5-fold of each other in kcat/Km: 167000 M⁻¹ s⁻¹ for the first, 217000 M⁻¹ s⁻¹ for the second.
